Sequences and labels used below:
B1: CIRCE2FR (dsDNA)
DNA 1: TTAGCCGATTGCCATCTAGCACTCTATACATGAGAGTGCTAGCACTCAAGGGCGCCCCCT
DNA 2: AGGGGGCGCCCTTGAGTGCTAGCACTCTCATGTATAGAGTGCTAGATGGCAATCGGCTAA
B2: MutO7 ss (ssDNA)
DNA: TTAGCCGATTGCCATCACGCACTACGTAGTGTCTATGTATCGATCTCAAGGGCGCCCCCT
B3: MutO2 ss (ssDNA)
DNA: ATACTTAGCCGATTGCCATCTAGCACTCTAGAGTGCTAGCACTCAAGGGCGCCCCCTATG
B4: CIRCE2F ss (ssDNA)
DNA: B1 DNA 1
B5: MutO3 ss (ssDNA)
DNA: TTAGCCGATTGCCATTCCTGTACAAATACATGAGAGTGCTAGCACTCAAGGGCGCCCCCT
B6: MutO5 ss (ssDNA)
DNA: TTAGCCGATTGCCATCTAGCACTCTGCGCCCCCTATACATGAGAGTGCTAGCACTCAAGG
B7: MutO6 ss (ssDNA)
DNA: TTAGCCGATTGCCATCTAGCACTCTATACATGTTGGAACGGACACTCAAGGGCGCCCCCT
B8: MutO4 ss (ssDNA)
DNA: GTGCACTTAGCCGATTGCCATTCTATACATGAGACACTCAAGGGCGCCCCCTCTAGCTAG

Usually Kd stands for the equilibrium constant for the complex coming apart. A lower Kd goes with a tighter complex.

The first series has as its target T1, GroEL1 (untagged) (Mycobacterium tuberculosis, UniProt P9WPE9 1-539).
T1 sequence: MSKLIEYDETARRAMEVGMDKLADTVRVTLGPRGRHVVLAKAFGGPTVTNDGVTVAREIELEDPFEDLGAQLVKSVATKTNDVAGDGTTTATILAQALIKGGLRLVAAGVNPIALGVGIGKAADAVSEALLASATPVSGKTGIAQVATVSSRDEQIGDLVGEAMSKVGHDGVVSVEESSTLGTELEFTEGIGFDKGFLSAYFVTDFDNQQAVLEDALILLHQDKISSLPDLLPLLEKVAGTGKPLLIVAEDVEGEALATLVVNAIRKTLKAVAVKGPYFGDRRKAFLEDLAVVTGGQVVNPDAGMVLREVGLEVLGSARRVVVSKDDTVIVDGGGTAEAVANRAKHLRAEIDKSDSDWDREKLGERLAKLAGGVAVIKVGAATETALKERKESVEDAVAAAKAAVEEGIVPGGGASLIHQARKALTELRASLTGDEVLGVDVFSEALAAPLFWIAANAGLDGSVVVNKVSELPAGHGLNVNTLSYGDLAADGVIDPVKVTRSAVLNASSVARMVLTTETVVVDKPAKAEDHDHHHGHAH
As to the kind of experiment: EMSA. A general note: Mobility shift assays separate free from complexed probe on a gel.
Molecule B1 came in with a Kd of 0.143 µM.

Another series has as its target T2, GroEL1 (untagged) (Mycobacterium tuberculosis) (UniProt P9WPE9).
T2 sequence: T1 sequence
As to the kind of experiment: EMSA.
With “TATATAGTCGACCCAGGTGATTCGGCATTCGTCCGCGCCCTCGCGCCGTCGTCGCGGGTGCCGACGCAGGGGTTAGCCGATTGCCATCTAGCACTCTATACATGAGAGTGCTAGCACTCAAGGGCGCCCCCTTGCTTCCTGGTTGCCAGCGTGTCTCTAGATATATA (double strand) [groES upstream region, 140 bp]”, the binding entry is listed as “binds”.

The next series addresses T1, GroEL1 (untagged). The experiment in a line: EMSA. The source holds these as a separate data set.
Regarding B2, the binding result is listed as “binds”. As for B3, the binding result is given as “binds”. On the same count and under the same terms, next, B4: “binds”; B5: “binds”; B6: “binds”. Same read-out and setting: next, B7: “binds”. For the molecule B8, the binding result is given as “binds”.

For the origin of these results see paper PMC2731897.
